From paper PMC2119884
Values joined by “and” are separate entries in the source; they are usually repeats but may differ in a detail not shown here. Equal entries are not always repeated. Where two headings read alike, the source gives them in different places.

Tests used:
[1] = target: L266D mutant yeast actin (S. cerevisiae) (UniProt P60010); experiment: sedimentation of F-actin
[2] = target: L266D mutant yeast actin (S. cerevisiae) (UniProt P60010); experiment: sedimentation of F-actin; remark: listed apart in the source
[3] = target: L266D mutant yeast actin (S. cerevisiae) (UniProt P60010); experiment: light scattering
[4] = target: L266D mutant yeast actin (S. cerevisiae) (UniProt P60010); experiment: light scattering; remark: listed apart in the source
[5] = target: L266D mutant yeast actin (S. cerevisiae) (UniProt P60010); experiment: light scattering; remark: listed apart in the source
[6] = target: L266D mutant yeast actin (S. cerevisiae) (UniProt P60010); experiment: light scattering; remark: listed apart in the source
[7] = target: L266D mutant yeast actin (S. cerevisiae) (UniProt P60010); experiment: sedimentation of F-actin; remark: listed apart in the source

actin remaining in the supernate (starting concentration 70 µM) [1]: 11.6 µM
actin remaining in the supernate (starting concentration 70 µM) [2]: 4.6 µM
critical concentration (Cc) for polymerization [3]: 11 µM
critical concentration (Cc) for polymerization [4]: 6.5 µM
critical concentration (Cc) for polymerization [5]: 1.2 µM
elongation rate, times slower than wild-type actin [5]: 2 times and 3 times
elongation rate, times slower than wild-type actin [6]: 2 times and 3 times
actin remaining in the supernate (starting concentration 70 µM) [7]: 46.5 µM
Substance: L266D mutant yeast actin (from UniProt P60010 1-375) (natural protein)
